In patent US20250144209A1 (Alector, published 2025):

T1: mouse SIRPA expressed on CHO cells (mouse, UniProt P97797 32-513)
T1 construct: also called CHO-mSIRPA; CHO-MuSIRPα
T1 sequence: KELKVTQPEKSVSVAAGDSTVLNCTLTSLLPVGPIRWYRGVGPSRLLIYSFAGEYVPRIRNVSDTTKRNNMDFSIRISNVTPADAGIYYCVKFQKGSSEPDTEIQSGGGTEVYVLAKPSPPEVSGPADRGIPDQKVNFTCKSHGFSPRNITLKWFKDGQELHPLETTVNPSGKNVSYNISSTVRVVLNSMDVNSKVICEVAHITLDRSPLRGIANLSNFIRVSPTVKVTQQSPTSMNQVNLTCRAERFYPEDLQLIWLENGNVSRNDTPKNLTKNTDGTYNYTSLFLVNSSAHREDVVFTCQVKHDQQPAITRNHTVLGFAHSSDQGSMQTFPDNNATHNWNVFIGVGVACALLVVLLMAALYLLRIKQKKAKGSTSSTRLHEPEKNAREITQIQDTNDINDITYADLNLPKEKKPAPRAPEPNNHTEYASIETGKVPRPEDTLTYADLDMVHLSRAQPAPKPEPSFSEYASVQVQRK


Experiments:
[1] = biological target: T1, mouse SIRPA expressed on CHO cells; experiment: flow cytometry on CHO-MuSIRPα cells
[2] = biological target: T2, human SIRPA expressed on cells (human, UniProt P78324 31-504); experiment: flow cytometry on CHO-HuSIRPα cells
T2 sequence (P78324 31-504): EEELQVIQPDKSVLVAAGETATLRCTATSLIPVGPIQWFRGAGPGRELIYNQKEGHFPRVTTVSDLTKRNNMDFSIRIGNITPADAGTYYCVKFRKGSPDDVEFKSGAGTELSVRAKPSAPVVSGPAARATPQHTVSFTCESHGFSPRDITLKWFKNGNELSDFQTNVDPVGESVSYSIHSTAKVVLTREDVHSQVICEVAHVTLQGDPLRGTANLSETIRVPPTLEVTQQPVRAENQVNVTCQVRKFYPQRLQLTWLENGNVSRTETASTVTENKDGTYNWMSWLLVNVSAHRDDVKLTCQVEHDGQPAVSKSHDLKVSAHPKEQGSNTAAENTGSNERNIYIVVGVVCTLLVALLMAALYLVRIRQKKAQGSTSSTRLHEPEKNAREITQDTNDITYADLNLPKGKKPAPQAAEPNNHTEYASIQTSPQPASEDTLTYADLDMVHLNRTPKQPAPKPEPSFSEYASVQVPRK
Description: Initial characterization of SIRPA antibodies involved screening their ability to bind the human receptor ectopically expressed on the rodent Chinese hamster ovary cell line, henceforth referred to as CHO-huSIRPA, followed by screening on primary human macrophages. Cells were harvested, plated at 10⁵ cells/well in a 96-well plate, washed, and incubated in 100 μl FACS buffer containing Fc blocking reagent and […] of indicated monoclonal antibody. Cells were then washed twice and incubated in FACS buffer containing APC-conjugated secondary antibody diluted 1:200 for 30 minutes on ice. Cells were washed twice in cold FACS buffer and acquired on a BD FACS Canto. Data analysis and calculation of mean fluorescence intensity (MFI) values or % positive cells was performed with FlowJo (TreeStar) software version 10.0.7.

[3] = biological target: T3, human SIRPA-DAP12 chimera expressed on BWZ/NFAT-luciferase reporter cells (human, UniProt O43914 62-113, limits assumed); experiment: flow cytometry on BWZ-Human SIRPA cells, titrated antibody detected with anti-mouse IgG APC (Relative MFI)
T3 construct: domain: intracellular ITAM motif; The intracellular ITIM motif of SIRPA was substituted with the intracellular ITAM motif of DAP12; also called BWZ-huSIRPA; BWZ-HuSIRPA

[4] = biological target: T2, human SIRPA expressed on cells; experiment: flow cytometry titration on CHO-huSIRPA cells at 4 C
Description: Serial dilutions of monoclonal antibodies were added to 10⁵ CHO-huSIRPA cells and allowed to achieve binding equilibrium at 4° C. After addition of fluorescently labeled secondary antibody and brief washing steps, MFI values as a function of titrated antibody concentration was recorded via FACS analysis (FIG. 3D). Curves were fit using nonlinear regression analysis with Graphpad Prism 6 software.

[5] = biological target: T2, human SIRPA expressed on cells; experiment: cell-based or functional assay
[6] = biological target: T4, recombinant soluble human SIRPA antigen, His-tagged (human, UniProt P78324 31-373); experiment: SPR, Biacore T200, antibody captured by anti-mouse IgG on CM5, soluble human SIRPA in solution, 1:1 fit
T4 construct: also called His-tagged soluble HuSIRPA protein; monomeric human SIRPA antigen; not shown: His tag
T4 sequence (P78324 31-373 limits assumed): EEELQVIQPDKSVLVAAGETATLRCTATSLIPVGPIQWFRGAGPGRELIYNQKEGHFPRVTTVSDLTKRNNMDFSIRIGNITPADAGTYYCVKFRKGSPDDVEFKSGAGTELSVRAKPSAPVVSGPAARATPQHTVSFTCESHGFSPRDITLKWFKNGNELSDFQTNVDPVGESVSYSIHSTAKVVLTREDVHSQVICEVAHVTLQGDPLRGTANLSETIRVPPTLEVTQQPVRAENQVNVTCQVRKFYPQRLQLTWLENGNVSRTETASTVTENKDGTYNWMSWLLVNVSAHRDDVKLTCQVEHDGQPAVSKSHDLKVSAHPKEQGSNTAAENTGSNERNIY
Description: Binding studies were performed using a Biacore T200 (GE). An anti-mouse IgG capture antibody was amine coupled to a CM5 sensor chip using standard NHS/EDC activation. SIRPA antibodies were diluted to 50 nM in 1×HBS-EP+ running buffer and captured onto sensor chip surface. Serial dilutions of recombinant soluble human SIRPA antigen were injected over captured SIRPA antibodies to record sensorgram traces. Data were processed by subtracting RU values from the reference cell as well as the buffer injections.

[7] = biological target: T1, mouse SIRPA expressed on CHO cells; experiment: flow cytometry on CHO-mSIRPA cells

Molecule	MFI, fold over background (fold over background) [1]	MFI, fold over background (fold over background) [2]	EC50 (read off the curve) [3] [nM]	MFI, fold over background [1] [fold over background]	EC50 [4] [nM]	phagocytic activity of treated macrophages (FIG. 8C) [5] [fold]	phagocytosis of labeled Raji cells: CD14+/pHrodo+ macrophages over isotype-treated macrophages [5] [fold]	Kd [6] [nM]	koff [6] [s⁻¹]	kon [6] [M⁻¹ s⁻¹]	MFI, fold over background [2] [fold over background]	binding result [7]
3F9 (antibody, IgG1, V domains shown, also called anti-SIRPA antibody 3F9; glycosylated 3F9) VH: EVKLVESGGGLVKPGGSLKLSCAASGFTFSSYAMSWVRQTPEKRLEWVATISDYGGSYTYYPDSVKGRFTISRDNAKYTLYLQMSSLRSEDTALYYCARPPYDDYYGGFAYWGQGTLVTVSA VL: DIVLTQSPASLAVSLGQRATISCRASKSVSSSGYSYMHWYQQKPGQPPKLLIYLASNLESGVPARFSGSGSGTDFTLNIHPVEEEDAATYYCQHNRELPCTFGGGTKLEIK	–	–	~1	0.998	2.6	2	2.5	10	0.00057	55000	137	no binding (tested: 1.0 pg/ml (so in the source))
deglycosylated 3F9 (antibody, IgG1, V domains shown, Fc-linked glycan removed with EndoS (on the heavy chain constant region, which is not given), also called deglycosylated 3F9 variant; deglycosylated form of 3F9) VH: EVKLVESGGGLVKPGGSLKLSCAASGFTFSSYAMSWVRQTPEKRLEWVATISDYGGSYTYYPDSVKGRFTISRDNAKYTLYLQMSSLRSEDTALYYCARPPYDDYYGGFAYWGQGTLVTVSA VL: DIVLTQSPASLAVSLGQRATISCRASKSVSSSGYSYMHWYQQKPGQPPKLLIYLASNLESGVPARFSGSGSGTDFTLNIHPVEEEDAATYYCQHNRELPCTFGGGTKLEIK	–	–	~1	–	–	–	–	–	–	–	–	–

Further lines, with some results ahead:

MFI, fold over background (fold over background) [1]	MFI, fold over background (fold over background) [2]	EC50 (read off the curve) [3] [nM]	MFI, fold over background [1] [fold over background]	EC50 [4] [nM]	phagocytic activity of treated macrophages (FIG. 8C) [5] [fold]	phagocytosis of labeled Raji cells: CD14+/pHrodo+ macrophages over isotype-treated macrophages [5] [fold]	Kd [6] [nM]	koff [6] [s⁻¹]	kon [6] [M⁻¹ s⁻¹]	MFI, fold over background [2] [fold over background]	Molecule	binding result [7]
1	1	–	–	–	–	–	–	–	–	–	mouse IgG1 isotype control (antibody)	–
–	–	–	0.981	1.6	–	1.5	80	0.0045	54000	128	9C2 (antibody, IgG1, V domains shown, also called anti-SIRPA antibody 9C2; 9C2-DyLight 650) VH: EFQLQQSGAELVKPGASVKISCKASGYSLTGYNMNWVKQSRGKSLEWIGNINPHYGSSTYNQNFKDKATLTVDKSSSAAYMQFNSLTSEDSAVYYCAREGYDGVFDYWGQGTTLTVSS VL: QIVLSQSPAILSASPGEKVTMTCRASSSVSYMHWYQQKPGSSPKPWIYVTSNLASGVPTRFSGSGSGTSYSLTISRVEAEDAATYYCQQWSSNPRTFGGGTKLEIK	no binding (tested: 1.0 pg/ml (so in the source))
